Reference: article PMC12099206

Columns and labels:
[1] = biological target: CmFDL1 expressed in chrysanthemum protoplasts (Chrysanthemum morifolium)
[2] = biological target: CmFTL3 expressed in chrysanthemum protoplasts (Chrysanthemum morifolium)

decrease in Luc activity of CmCDM111Lpro:Luc in chrysanthemum protoplasts (dual-luciferase), CmTCP7, CmFTL3 and CmFDL1 co-transfected against CmFTL3 and CmFDL1 [1]: 80%
decrease in Luc activity of CmCDM111Lpro:Luc in chrysanthemum protoplasts (dual-luciferase), CmTCP7, CmFTL3 and CmFDL1 co-transfected against CmFTL3 and CmFDL1 [2]: 80%
Substance: CmTCP7 expressed in chrysanthemum protoplasts (natural protein)
